Measurements taken from US20140274782A1, “AFFINITY REAGENTS AND METHODS FOR DETECTION, PURIFICATION, AND PROTEOMIC ANALYSIS OF METHYLATED PROTEINS” (The Board of Trustees of the Leland Stanford Junior …, priority 2013, published 2014).

T1: G9a and GLP (Homo sapiens, UniProt Q96KQ7+Q9H9B1)
T1 sequence (Q96KQ7 2-1210 limits assumed): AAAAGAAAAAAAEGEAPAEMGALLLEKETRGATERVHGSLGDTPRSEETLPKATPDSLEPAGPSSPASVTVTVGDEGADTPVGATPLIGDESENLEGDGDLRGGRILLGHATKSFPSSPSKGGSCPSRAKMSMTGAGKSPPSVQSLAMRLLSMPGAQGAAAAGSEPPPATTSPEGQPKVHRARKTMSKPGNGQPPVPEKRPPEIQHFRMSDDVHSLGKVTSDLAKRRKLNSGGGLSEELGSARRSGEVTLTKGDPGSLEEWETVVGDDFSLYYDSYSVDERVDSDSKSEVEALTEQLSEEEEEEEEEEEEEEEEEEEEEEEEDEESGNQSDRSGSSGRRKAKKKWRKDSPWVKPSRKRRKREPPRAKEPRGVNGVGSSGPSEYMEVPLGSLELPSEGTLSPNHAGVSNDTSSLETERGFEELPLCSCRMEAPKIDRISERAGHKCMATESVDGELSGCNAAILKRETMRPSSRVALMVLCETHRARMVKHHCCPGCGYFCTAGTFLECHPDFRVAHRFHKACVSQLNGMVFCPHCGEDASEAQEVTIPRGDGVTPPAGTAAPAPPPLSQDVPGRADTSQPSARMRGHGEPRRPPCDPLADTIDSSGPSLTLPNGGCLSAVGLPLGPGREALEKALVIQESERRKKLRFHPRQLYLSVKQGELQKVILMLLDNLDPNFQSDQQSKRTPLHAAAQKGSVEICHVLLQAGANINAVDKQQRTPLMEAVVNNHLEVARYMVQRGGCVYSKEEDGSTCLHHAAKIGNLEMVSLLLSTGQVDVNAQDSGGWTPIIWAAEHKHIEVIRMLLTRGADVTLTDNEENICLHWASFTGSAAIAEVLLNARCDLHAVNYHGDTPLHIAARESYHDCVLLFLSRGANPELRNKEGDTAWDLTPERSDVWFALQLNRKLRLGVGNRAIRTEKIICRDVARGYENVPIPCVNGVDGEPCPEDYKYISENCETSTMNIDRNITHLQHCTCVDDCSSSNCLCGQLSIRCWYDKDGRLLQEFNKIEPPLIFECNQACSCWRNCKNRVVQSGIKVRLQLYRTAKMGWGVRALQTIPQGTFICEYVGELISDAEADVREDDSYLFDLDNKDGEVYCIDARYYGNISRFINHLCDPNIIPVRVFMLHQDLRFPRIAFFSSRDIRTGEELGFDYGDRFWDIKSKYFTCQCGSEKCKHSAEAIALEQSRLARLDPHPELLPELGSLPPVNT
T1 sequence (Q9H9B1 2-1298 limits assumed): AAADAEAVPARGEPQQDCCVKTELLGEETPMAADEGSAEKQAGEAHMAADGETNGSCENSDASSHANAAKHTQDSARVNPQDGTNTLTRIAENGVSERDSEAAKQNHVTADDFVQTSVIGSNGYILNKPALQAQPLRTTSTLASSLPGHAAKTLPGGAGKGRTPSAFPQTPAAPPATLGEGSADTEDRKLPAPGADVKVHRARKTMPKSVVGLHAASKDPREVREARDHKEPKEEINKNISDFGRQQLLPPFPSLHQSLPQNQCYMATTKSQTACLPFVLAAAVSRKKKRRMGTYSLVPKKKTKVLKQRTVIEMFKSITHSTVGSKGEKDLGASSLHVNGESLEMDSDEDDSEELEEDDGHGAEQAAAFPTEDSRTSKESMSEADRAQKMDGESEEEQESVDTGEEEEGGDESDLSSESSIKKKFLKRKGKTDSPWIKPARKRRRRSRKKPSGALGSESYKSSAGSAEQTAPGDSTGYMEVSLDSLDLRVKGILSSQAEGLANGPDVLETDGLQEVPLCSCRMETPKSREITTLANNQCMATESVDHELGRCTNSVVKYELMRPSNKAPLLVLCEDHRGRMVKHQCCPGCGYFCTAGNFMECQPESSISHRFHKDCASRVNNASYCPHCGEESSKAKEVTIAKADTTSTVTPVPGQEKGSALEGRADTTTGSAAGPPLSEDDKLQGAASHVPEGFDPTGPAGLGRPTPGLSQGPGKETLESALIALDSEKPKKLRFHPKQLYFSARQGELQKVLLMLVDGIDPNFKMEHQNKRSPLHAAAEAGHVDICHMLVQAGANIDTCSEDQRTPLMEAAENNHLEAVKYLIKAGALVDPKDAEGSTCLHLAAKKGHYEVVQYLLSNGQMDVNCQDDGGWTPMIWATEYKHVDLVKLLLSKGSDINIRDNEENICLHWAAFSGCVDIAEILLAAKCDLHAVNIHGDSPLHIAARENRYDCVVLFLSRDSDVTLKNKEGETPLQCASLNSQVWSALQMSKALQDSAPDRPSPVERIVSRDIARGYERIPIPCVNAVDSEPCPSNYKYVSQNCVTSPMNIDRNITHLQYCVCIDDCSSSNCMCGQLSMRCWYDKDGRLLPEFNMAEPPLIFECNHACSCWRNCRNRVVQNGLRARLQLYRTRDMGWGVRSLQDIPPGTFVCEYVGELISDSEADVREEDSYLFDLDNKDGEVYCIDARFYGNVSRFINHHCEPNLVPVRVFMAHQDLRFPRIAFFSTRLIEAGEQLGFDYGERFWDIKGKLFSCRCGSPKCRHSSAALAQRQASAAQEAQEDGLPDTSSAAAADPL

B1: XPC (protein, UniProt Q01831 2-940, looked up)
DNA repair protein …: ARKRAAGGEPRGRELRSQKSKAKSKARREEEEEDAFEDEKPPKKSLLSKVSQGKRKRGCSHPGGSADGPAKKKVAKVTVKSENLKVIKDEALSDGDDLRDFPSDLKKAHHLKRGATMNEDSNEEEEESENDWEEVEELSEPVLGDVRESTAFSRSLLPVKPVEIEIETPEQAKTRERSEKIKLEFETYLRRAMKRFNKGVHEDTHKVHLLCLLANGFYRNNICSQPDLHAIGLSIIPARFTRVLPRDVDTYYLSNLVKWFIGTFTVNAELSASEQDNLQTTLERRFAIYSARDDEELVHIFLLILRALQLLTRLVLSLQPIPLKSATAKGKKPSKERLTADPGGSSETSSQVLENHTKPKTSKGTKQEETFAKGTCRPSAKGKRNKGGRKKRSKPSSSEEDEGPGDKQEKATQRRPHGRERRVASRVSYKEESGSDEAGSGSDFELSSGEASDPSDEDSEPGPPKQRKAPAPQRTKAGSKSASRTHRGSHRKDPSLPAASSSSSSSKRGKKMCSDGEKAEKRSIAGIDQWLEVFCEQEEKWVCVDCVHGVVGQPLTCYKYATKPMTYVVGIDSDGWVRDVTQRYDPVWMTVTRKCRVDAEWWAETLRPYQSPFMDREKKEDLEFQAKHMDQPLPTAIGLYKNHPLYALKRHLLKYEAIYPETAAILGYCRGEAVYSRDCVHTLHSRDTWLKKARVVRLGEVPYKMVKGFSNRARKARLAEPQLREENDLGLFGYWQTEEYQPPVAVDGKVPRNEFGNVYLFLPSMMPIGCVQLNLPNLHRVARKLDIDCVQAITGFDFHGGYSHPVTDGYIVCEEFKDVLLTAWENEQAVIERKEKEKKEKRALGNWKLLAKGLLIRERLKRRYGPKSEAAAPHTDAGGGLSSDEEEGTSSQAEAARILAASWPQNREDEEKQKLKGGPKKTKREKKAAASHLFPFEQL
B2: MARS (protein, UniProt P56192 1-900, looked up)
Methionine--tRNA ligase, …: MRLFVSDGVPGCLPVLAAAGRARGRAEVLISTVGPEDCVVPFLTRPKVPVLQLDSGNYLFSTSAICRYFFLLSGWEQDDLTNQWLEWEATELQPALSAALYYLVVQGKKGEDVLGSVRRALTHIDHSLSRQNCPFLAGETESLADIVLWGALYPLLQDPAYLPEELSALHSWFQTLSTQEPCQRAAETVLKQQGVLALRPYLQKQPQPSPAEGRAVTNEPEEEELATLSEEEIAMAVTAWEKGLESLPPLRPQQNPVLPVAGERNVLITSALPYVNNVPHLGNIIGCVLSADVFARYSRLRQWNTLYLCGTDEYGTATETKALEEGLTPQEICDKYHIIHADIYRWFNISFDIFGRTTTPQQTKITQDIFQQLLKRGFVLQDTVEQLRCEHCARFLADRFVEGVCPFCGYEEARGDQCDKCGKLINAVELKKPQCKVCRSCPVVQSSQHLFLDLPKLEKRLEEWLGRTLPGSDWTPNAQFITRSWLRDGLKPRCITRDLKWGTPVPLEGFEDKVFYVWFDATIGYLSITANYTDQWERWWKNPEQVDLYQFMAKDNVPFHSLVFPCSALGAEDNYTLVSHLIATEYLNYEDGKFSKSRGVGVFGDMAQDTGIPADIWRFYLLYIRPEGQDSAFSWTDLLLKNNSELLNNLGNFINRAGMFVSKFFGGYVPEMVLTPDDQRLLAHVTLELQHYHQLLEKVRIRDALRSILTISRHGNQYIQVNEPWKRIKGSEADRQRAGTVTGLAVNIAALLSVMLQPYMPTVSATIQAQLQLPPPACSILLTNFLCTLPAGHQIGTVSPLFQKLENDQIESLRQRFGGGQAKTSPKPAVVETVTTAKPQQIQALMDEVTKQGNIVRELKAQKADKNEVAAEVAKLLDLKKQLAVAEGKPPEAPKGKKKK
B3: DNAJC9 (protein, UniProt Q8WXX5 1-260, looked up)
DnaJ homolog subfamily C …: MGLLDLCEEVFGTADLYRVLGVRREASDGEVRRGYHKVSLQVHPDRVGEGDKEDATRRFQILGKVYSVLSDREQRAVYDEQGTVDEDSPVLTQDRDWEAYWRLLFKKISLEDIQAFEKTYKGSEEELADIKQAYLDFKGDMDQIMESVLCVQYTEEPRIRNIIQQAIDAGEVPSYNAFVKESKQKMNARKRRAQEEAKEAEMSRKELGLDEGVDSLKAAIQSRQKDRQKEMDNFLAQMEAKYCKSSKGGGKKSALKKEKK
B4: PAICS (protein, UniProt P22234 2-425, looked up)
Bifunctional …: ATAEVLNIGKKLYEGKTKEVYELLDSPGKVLLQSKDQITAGNAARKNHLEGKAAISNKITSCIFQLLQEAGIKTAFTRKCGETAFIAPQCEMIPIEWVCRRIATGSFLKRNPGVKEGYKFYPPKVELFFKDDANNDPQWSEEQLIAAKFCFAGLLIGQTEVDIMSHATQAIFEILEKSWLPQNCTLVDMKIEFGVDVTTKEIVLADVIDNDSWRLWPSGDRSQQKDKQSYRDLKEVTPEGLQMVKKNFEWVAERVELLLKSESQCRVVVLMGSTSDLGHCEKIKKACGNFGIPCELRVTSAHKGPDETLRIKAEYEGDGIPTVFVAVAGRSNGLGPVMSGNTAYPVISCPPLTPDWGVQDVWSSLRLPSGLGCSTVLSPEGSAQFAAQIFGLSNHLVWSKLRASILNTWISLKQADKKIRECNL

Molecular target: T1, G9a and GLP
Test: Triple SILAC pull-down after UNC0638 treatment of 293T cells, DMSO/UNC0638 ratio of protein captured by 3×MBT;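 further: mass spectrometry (Q-Exactive) SILAC quantitation, DMSO/UNC0638 ratio computed after subtracting 3×MBTD355N mutant pull-down background, only proteins with at least twofold 3×MBT over mutant signal considered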
Type: cell-based
Parameters: endogenous in cells; host or cells: HEK 293T
Conditions: SILAC ratio DMSO relative to UNC0638, pull-down with 3xMBT; UNC0638 in heavy SILAC media; all values in log base 2

| Relative to UNC0638 UNC Heavy [log base 2] | Molecule |
| --- | --- |
| 0.03 | B1 |
| 0.15 | B2 |
| 0.09 | B3 |
| −0.03 | B4 |

Same assay, conditions: SILAC ratio DMSO relative to UNC0638, pull-down with 3xMBT; UNC0638 in light SILAC media; all values in log base 2

| Relative to UNC0638 UNC Light [log base 2] | Molecule |
| --- | --- |
| 0.03 | B1 |
| −0.08 | B2 |
| −0.02 | B3 |
| 0.05 | B4 |

Same assay, conditions: average of UNC Light and UNC Heavy experiments; all values in log base 2

| Relative to UNC0638 Average [log base 2] | Molecule |
| --- | --- |
| 0.03 | B1 |
| 0.03 | B2 |
| 0.04 | B3 |
| 0.01 | B4 |

Tested on: 3×MBT domain of L3MBTL1
Test: Triple SILAC pull-down, 3xMBT/3xMBTD355N ratio (cytoplasmic, nuclear and chromatin fractions of 293T cells);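 further: proteins quantified with MaxQuant, requiring at least two unique peptides and quantification in both label directions, normalized to the mean of proteins from a digested loading control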
Type: binding, human
Conditions: SILAC ratio 3xMBT vs 3xMBTD355N pull-down, 293T cells; experiment with UNC0638 in heavy SILAC media; all values in log base 2

| Molecule | 3xMBT/D355N UNC Heavy [log base 2] |
| --- | --- |
| B1 | 2.62 |
| B2 | 1.87 |
| B3 | 2.56 |
| B4 | 1.12 |

Same assay, conditions: SILAC ratio 3xMBT vs 3xMBTD355N pull-down, 293T cells; experiment with UNC0638 in light SILAC media; all values in log base 2

| Molecule | 3xMBT/D355N UNC Light [log base 2] |
| --- | --- |
| B1 | 3.99 |
| B2 | 1.56 |
| B3 | 1.85 |
| B4 | 1.04 |
